Biological target: CDK5 (full-length), His-tag cleaved (human, UniProt Q00535 1-292)
Test: SEC

B1: cyclin B1 (amino acids 152-433, C167S, C238S, C350S), co-expressed with CDK5 from a single 438-B vector (domain or fragment)
chain: AVNDVDAEDGADPNLSSEYVKDIYAYLRQLEEEQAVRPKYLLGREVTGNMRAILIDWLVQVQMKFRLLQETMYMTVSIIDRFMQNNSVPKKMLQLVGVTAMFIASKYEEMYPPEIGDFAFVTDNTYTKHQIRQMEMKILRALNFGLGRPLPLHFLRRASKIGEVDVEQHTLAKYLMELTMLDYDMVHFPPSQIAAGAFSLALKILDNGEWTPTLQHYLSYTEESLLPVMQHLAKNVVMVNQGLTKHMTVKNKYATSKHAKISTLPQLNSALVQDLAKAVAKV
binding result: binds

From paper doi:10.1101/2025.09.10.675329 (bioRxiv, 2025)
